Results from US6835382B2, “Ii peptide therapeutics to enhance antigen presentation” (University of Massachusetts, priority 1996, dated 2004).
Non-standard residues stand in square brackets, D forms with d. Cit = NC(=O)NCCC[C@H](N)C(=O)O

Biological target: T1, murine E^d MHC class II allele (Mus musculus, UniProt P01904+P01915)
T1 sequence (P01904 26-255): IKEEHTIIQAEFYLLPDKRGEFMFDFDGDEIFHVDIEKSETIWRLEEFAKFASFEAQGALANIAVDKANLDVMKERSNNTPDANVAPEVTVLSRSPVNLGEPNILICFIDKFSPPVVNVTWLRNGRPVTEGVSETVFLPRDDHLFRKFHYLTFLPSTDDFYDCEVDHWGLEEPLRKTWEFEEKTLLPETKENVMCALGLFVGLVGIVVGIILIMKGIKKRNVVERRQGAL
T1 sequence (P01915 27-264 limits assumed): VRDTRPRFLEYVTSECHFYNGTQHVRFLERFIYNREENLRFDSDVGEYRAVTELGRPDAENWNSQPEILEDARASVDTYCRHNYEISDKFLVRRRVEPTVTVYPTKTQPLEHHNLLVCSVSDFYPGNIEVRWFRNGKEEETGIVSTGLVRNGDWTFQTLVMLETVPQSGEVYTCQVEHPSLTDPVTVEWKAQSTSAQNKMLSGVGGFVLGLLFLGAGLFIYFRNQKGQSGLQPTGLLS
Experiment: processed antigen assay, E^d allele (APC pulsed with native HEL)
Assay type: cell-based
Design: The A20 and CH27 B cell lymphoma lines express H-2^d and H-2^k alleles, respectively; endogenous in cells; host or cells: A20 B cell lymphoma (mitomycin C-treated or paraformaldehyde-fixed)
Details: AE peptide 64 μM; for T cell response relative to baseline (None = 1.00), E^d: Table 31; for T cell response relative to baseline (None = 1.0), 5 μM HEL E^d, first value / T cell response relative to baseline (None = 1.0), 5 μM HEL E^d, second value / T cell response relative to baseline (None = 1.0), 10 μM HEL E^d, first value / T cell response relative to baseline (None = 1.0), 10 μM HEL E^d, second value / T cell response relative to baseline (None = 1.0), 20 μM HEL E^d, first value / T cell response relative to baseline (None = 1.0), 20 μM HEL E^d, second value: Table 29; for T cell response relative to baseline (None = 1.0), 5 μM HEL E^d, first value / T cell response relative to baseline (None = 1.0), 5 μM HEL E^d, second value: native HEL prepulse 5 μM; for T cell response relative to baseline (None = 1.0), 5 μM HEL E^d, first value / T cell response relative to baseline (None = 1.0), 10 μM HEL E^d, first value / T cell response relative to baseline (None = 1.0), 20 μM HEL E^d, first value: supernatant dilution 1:4 (first value); for T cell response relative to baseline (None = 1.0), 5 μM HEL E^d, second value / T cell response relative to baseline (None = 1.0), 10 μM HEL E^d, second value / T cell response relative to baseline (None = 1.0), 20 μM HEL E^d, second value: supernatant dilution 1:8 (second value)
Procedure: In a third type of assay, the “processed antigen assay”, certain of the AE101 series of peptides inhibit stimulation of specific T cell hybridomas by antigenic peptides which are derived from the endogenous processing of a native protein antigen. This assay, which is related to the peptide prepulse assay, is performed by incubating APC with native protein antigen for 8 h, after which the pulsed APC are washed and treated with mitomycin C. Those pulsed APC are then combined with AE101 series peptides and T cell hybridomas and are incubated for 24 h. After that incubation, an aliquot of the culture supernatant is transferred to a second culture to measure T cell stimulation, as reflected in the effect of released interleukins on the growth of an interleukin-dependent, indicator cell line. During the 8 h incubation with native protein antigen, the protein antigen is taken into the APC. The native protein enters the processing pathway within the APC, where it is enzymatically cleaved to peptide fragments. Those peptide fragments with high affinity for the particular MHC class II molecules produced by the APC form antigenic peptide/MHC class II complexes which are transported to the cell surface. At the cell surface, the MHC class II molecules are contacted by the AE101 peptides, which cause the release of the antigenic peptide by the same mechanism proposed for the “peptide prepulse” assay above.
The “processed antigen assay” was carried out under essentially the same conditions as the “peptide prepulse assay”, with the following modifications. Untreated APC were incubated at 1×10^6/mL in 24-well plates (1 mL/well) with native protein antigen for 8 h. Following that incubation, the pulsed APC were washed, treated with mitomycin C, and washed again. AE101 series peptide was added at 64 μM, 16 μM, 4 μM, and 1 μM concentrations for 24 h in the presence of the T cell hybridoma specific for the antigenic peptide. Interleukin release from these cultures was measured by proliferation of HT-2 cells to interleukins in supernatants transferred from the primary culture. The baseline T cell response was measured by culturing T hybridoma cells with the native antigen-prepulsed APC in the absence of AE101 series peptides.
The “processed antigen assay” was carried out under essentially the same conditions as the “peptide prepulse” assay, with the following modifications. Untreated APC were incubated at 1×10^6/mL in 24-well plates (1 mL/well) with native protein antigen for 8 h. Following incubation, the pulsed APC were washed, treated with mitomycin C, and were washed again. The assay conditions were then as described for “peptide prepulse” above. The baseline T cell response was measured by culturing T hybridoma cells with the native antigen-prepulsed APC in the absence of AE101 peptides.
Table 2.9: Activities of substitution series at Leucine^80 in AE114 in a processed antigen assay. […] The results in this assay constitute, relatively, a mirror image of the result in the simultaneous assay (Example 1, Table 7) and parallel those of the antigenic peptide prepulse assay (Example 5, Table 24). Untreated APC were incubated with native HEL, instead of antigenic peptide, for 8 h. After incubation, the pulsed cells were washed and mitomycin C treated before being cocultured with AE-peptides and T cell hybridomas. Wells containing only T cells and native HEL-prepulsed APC were used to determine the Baseline response, or 1, in the absence of AE peptides. The concentration of AE peptide used was 64 μM for these assays. The supernatant dilutions used in the HT-2 cell assay were 1:4 (first value) and 1:8 (second value).

[1] = native HEL prepulse 10 μM, supernatant dilution 1:4
[2] = Table 30, native HEL prepulse 10 μM, supernatant dilution 1:8
[3] = Table 32, native HEL prepulse 20 μM, supernatant dilution 1:4

Ac-ARNKLPK-NH2 [AE344]
T cell response relative to baseline (None = 1.00), E^d [1]: 0.76

Ac-LRMK H PK-NH2 (Ac-LRMKHPK-NH2) [AE228]
T cell response relative to baseline (None = 1.0), 5 μM HEL E^d, first value: 0.35,
T cell response relative to baseline (None = 1.0), 5 μM HEL E^d, second value: 0.45
T cell response relative to baseline (None = 1.0), 10 μM HEL E^d, first value (native HEL prepulse 10 μM): 0.41,
T cell response relative to baseline (None = 1.0), 10 μM HEL E^d, second value (native HEL prepulse 10 μM): 0.41
T cell response relative to baseline (None = 1.0), 20 μM HEL E^d, first value (native HEL prepulse 20 μM): 0.71,
T cell response relative to baseline (None = 1.0), 20 μM HEL E^d, second value (native HEL prepulse 20 μM): 0.61

Ac-LRMKLP F-NH2 (Ac-LRMKLPF-NH2) [AE248]
T cell response relative to baseline (None = 1.00), E^d [1]: 0.30

Ac-LR N KLPK-NH2 (Ac-LRNKLPK-NH2) [AE202]
T cell response relative to baseline (None = 1.00), E^d [1]: 0.76

Ac-LR (mL) KyPK-NH2 [AE304]
T cell response relative to baseline (None = 1.0), E^d [2]: 0.77

Ac-ARNKNPF-NH2 [AE347]
T cell response relative to baseline (None = 1.00), E^d [1]: 0.80

Ac-LR (mL) KYPk-NH2 [AE305]
T cell response relative to baseline (None = 1.0), E^d [2]: 0.70

Ac-LRMK l PK-NH2 [AE164]
T cell response relative to baseline (None = 1.0), E^d [2]: 0.64

Ac-LR (mL) KYPK-NH2 [AE303]
T cell response relative to baseline (None = 1.0), E^d [2]: 0.82

Ac-LRLK HArg PK-NH2 [AE341]
T cell response relative to baseline (None = 1.00), E^d [1]: 0.12

Ac-Y K MKLPKSAK-NH2 [AE134]
T cell response relative to baseline (None = 1.0), E^d [3]: 0.50

Ac-LRM M LPK-NH2 (Ac-LRMMLPK-NH2) [AE220]
T cell response relative to baseline (None = 1.0), E^d [3]: 0.63

Ac-LRMKLP k-NH2 [AE166]
T cell response relative to baseline (None = 1.0), E^d [2]: 0.36

Ac-LRMK F PK-NH2 (Ac-LRMKFPK-NH2) [AE234]
T cell response relative to baseline (None = 1.0), 5 μM HEL E^d, first value: 0.51,
T cell response relative to baseline (None = 1.0), 5 μM HEL E^d, second value: 0.62
T cell response relative to baseline (None = 1.0), 10 μM HEL E^d, first value (native HEL prepulse 10 μM): 0.65,
T cell response relative to baseline (None = 1.0), 10 μM HEL E^d, second value (native HEL prepulse 10 μM): 0.60
T cell response relative to baseline (None = 1.0), 20 μM HEL E^d, first value (native HEL prepulse 20 μM): 0.98,
T cell response relative to baseline (None = 1.0), 20 μM HEL E^d, second value (native HEL prepulse 20 μM): 0.88

Ac-LRMKLP N-NH2 (Ac-LRMKLPN-NH2) [AE246]
T cell response relative to baseline (None = 1.0), E^d [3]: 0.72

Ac-LRNKNPF-NH2 [AE348]
T cell response relative to baseline (None = 1.00), E^d [1]: 0.81

Ac-LRMKLP[Cit]-NH2 [AE241]
T cell response relative to baseline (None = 1.0), E^d [3]: 0.63

Ac-LR (mL) KLPK-NH2 [AE302]
T cell response relative to baseline (None = 1.0), E^d [2]: 0.51

Ac-LRLKYPK-NH2 [AE301]
T cell response relative to baseline (None = 1.0), E^d [2]: 0.19
T cell response relative to baseline (None = 1.00), E^d [1]: 0.46
T cell response relative to baseline (None = 1.0), E^d [3]: 0.54

Ac-LR L KLPK-NH2 (Ac-LRLKLPK-NH2; not fully specified; printed as Ac-LR L KLPK-NH2) [AE206]
T cell response relative to baseline (None = 1.0), E^d [2]: 0.22
T cell response relative to baseline (None = 1.00), E^d [1]: 0.41
T cell response relative to baseline (None = 1.0), E^d [3]: 0.46

Ac-LRLKWPK-NH2 [AE309]
T cell response relative to baseline (None = 1.0), E^d [2]: 0.29
T cell response relative to baseline (None = 1.00), E^d [1]: 0.44
T cell response relative to baseline (None = 1.0), E^d [3]: 0.55

Ac-LRMK Q PK-NH2 (Ac-LRMKQPK-NH2) [AE233]
T cell response relative to baseline (None = 1.0), 5 μM HEL E^d, first value: 0.48,
T cell response relative to baseline (None = 1.0), 5 μM HEL E^d, second value: 0.36
T cell response relative to baseline (None = 1.0), 10 μM HEL E^d, first value (native HEL prepulse 10 μM): 0.53,
T cell response relative to baseline (None = 1.0), 10 μM HEL E^d, second value (native HEL prepulse 10 μM): 0.47
T cell response relative to baseline (None = 1.0), 20 μM HEL E^d, first value (native HEL prepulse 20 μM): 0.74,
T cell response relative to baseline (None = 1.0), 20 μM HEL E^d, second value (native HEL prepulse 20 μM): 0.68

Ac-LR (mL) KyPk-NH2 [AE306]
T cell response relative to baseline (None = 1.0), E^d [2]: 0.68

Ac-LRMK D PK-NH2 (Ac-LRMKDPK-NH2) [AE230]
T cell response relative to baseline (None = 1.0), 5 μM HEL E^d, first value: 0.81,
T cell response relative to baseline (None = 1.0), 5 μM HEL E^d, second value: 0.62
T cell response relative to baseline (None = 1.0), 10 μM HEL E^d, first value (native HEL prepulse 10 μM): 0.93,
T cell response relative to baseline (None = 1.0), 10 μM HEL E^d, second value (native HEL prepulse 10 μM): 0.77
T cell response relative to baseline (None = 1.0), 20 μM HEL E^d, first value (native HEL prepulse 20 μM): 1.1,
T cell response relative to baseline (None = 1.0), 20 μM HEL E^d, second value (native HEL prepulse 20 μM): 0.98

Ac-LRLKyPK-NH2 [AE308]
T cell response relative to baseline (None = 1.0), E^d [2]: 0.60

Ac-LRMK N PK-NH2 (Ac-LRMKNPK-NH2) [AE232]
T cell response relative to baseline (None = 1.0), 5 μM HEL E^d, first value: 0.50,
T cell response relative to baseline (None = 1.0), 5 μM HEL E^d, second value: 0.50
T cell response relative to baseline (None = 1.0), 10 μM HEL E^d, first value (native HEL prepulse 10 μM): 0.68,
T cell response relative to baseline (None = 1.0), 10 μM HEL E^d, second value (native HEL prepulse 10 μM): 0.61
T cell response relative to baseline (None = 1.0), 20 μM HEL E^d, first value (native HEL prepulse 20 μM): 0.97,
T cell response relative to baseline (None = 1.0), 20 μM HEL E^d, second value (native HEL prepulse 20 μM): 0.83
T cell response relative to baseline (None = 1.00), E^d [1]: 0.46
